Measured values reported in patent publication US20050113284A1, “Drug for regenerating tissue and vessel and method therefor” (priority 2001, published 2005).

Biological target: T1, MERMUC bait protein (Homo sapiens, UniProt Q8N307)
T1 construct: Bait-2 corresponds to a 123 amino acid portion of the C-terminus (bait-2); expressed in transfected cells; host or cells: yeast AH109 strain (pGBKT7 bait vector)
T1 sequence (Q8N307 587-709): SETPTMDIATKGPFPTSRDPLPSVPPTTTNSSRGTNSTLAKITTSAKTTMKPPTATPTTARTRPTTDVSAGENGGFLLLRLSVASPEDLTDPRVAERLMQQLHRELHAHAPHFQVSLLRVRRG
Assay: Yeast two-hybrid binding of c-Met prey deletion proteins to MERMUC bait-2
Settings: yeast growth on SD/-Leu,-Trp,-His and SD/-Leu,-Trp,-Ade; human MERMUC bait-2
Procedure: The present invention was performed using the reported yeast two-hybrid system (Proc. Natl. Acad. Sci. USA., 1991, Vol. 88, p.9578-9582) based on conventional method and the experimental protocols appended to the reagents.
PCR was performed using DNA (clone No. 3-309) corresponding to the 91 amino acids (amino acids 993-1083 of SEQ ID NO: 4) of the C-terminal region of the human HGF receptor c-Met β chain that was identified in the previous Example to have the binding ability to the cytoplasmic region of human MERMUC as a template. […]
The binding activity between the c-Met prey proteins derived from the 7 DNA fragments and the MERMUC bait protein was analyzed by the yeast two-hybrid system described in Example 1. Specifically, the binding activity was evaluated based on the growth of yeast transformed with the vector on 2 kinds of yeast minimum media, i.e., (1) SD/-Leu, -Trp, -His media and (2) SD/-Leu, -Trp, -Ade media.

binding activity with MERMUC bait protein: − (no binding).
Substance: prey DNA G: c-Met prey protein, amino acids 993-1043 of SEQ ID NO: 4 (RRLLQPEYCPDPLYEVMLKCWHPKAEMRPSFSELVSRISAIFSTFIGEHYV; listed as Homo sapiens)
